Data from paper PMC2903414 (The Journal of Biological Chemistry, 2010).

Biological target: Flag-tagged full-length mouse sphingosine 1-phosphate receptor-1 (S1P1) (mouse, UniProt O08530 1-382)
Assay: co-IP

Chain of Flag-tagged full-length mouse sphingosine 1-phosphate receptor-1 (S1P1) (O08530 whole entry): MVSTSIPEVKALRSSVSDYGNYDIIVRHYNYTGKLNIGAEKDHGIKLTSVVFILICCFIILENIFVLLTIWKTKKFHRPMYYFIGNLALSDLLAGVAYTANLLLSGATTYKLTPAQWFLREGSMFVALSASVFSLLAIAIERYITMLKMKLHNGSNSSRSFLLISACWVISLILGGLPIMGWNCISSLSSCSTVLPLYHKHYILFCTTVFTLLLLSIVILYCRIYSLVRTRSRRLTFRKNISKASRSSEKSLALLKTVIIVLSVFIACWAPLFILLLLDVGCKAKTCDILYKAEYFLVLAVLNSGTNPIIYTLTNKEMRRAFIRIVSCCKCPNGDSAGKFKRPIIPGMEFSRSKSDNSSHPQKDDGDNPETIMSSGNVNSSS

fold interaction compared with the control proteins NKRp1A and S1P3: 10 fold
B1: HA-tagged mouse CD69 (natural protein, UniProt P37217 1-199, looked up)
chain: MDSENCSITENSSSHLERGQKDHGTSIHFEKHHEGSIQVSIPWAVLIVVLITSLIIALIALNVGKYNCPGLYEKLESSDHHVATCKNEWISYKRTCYFFSTTTKSWALAQRSCSEDAATLAVIDSEKDMTFLKRYSGELEHWIGLKNEANQTWKWANGKEFNSWFNLTGSGRCVSVNHKNVTAVDCEANFHWVCSKPSR
